Drawing on article PMC6704107 (2019), this text covers Kd for three variants.

B1: Adeno-associated virus receptor (AAVR), wild-type, PKD1-5 domains [not stated] / Adeno-associated virus 1 (AAV1) particle, wild-type capsid [adeno-associated virus 1 (AAV1)] (parent complex)
chain 1: MEKRLGVKPNPASWILSGYYWQTSAKWLRSLYLFYTCFCFSVLWLSTDASESRCQQGKTQFGVGLRSGGENHLWLLEGTPSLQSCWAACCQDSACHVFWWLEGMCIQADCSRPQSCRAFRTHSSNSMLVFLKKFQTADDLGFLPEDDVPHLLGLGWNWASWRQSPPRAALRPAVSSSDQQSLIRKLQKRGSPSDVVTPIVTQHSKVNDSNELGGLTTSGSAEVHKAITISSPLTTDLTAELSGGPKNVSVQPEISEGLATTPSTQQVKSSEKTQIAVPQPVAPSYSYATPTPQASFQSTSAPYPVIKELVVSAGESVQITLPKNEVQLNAYVLQEPPKGETYTYDWQLITHPRDYSGEMEGKHSQILKLSKLTPGLYEFKVIVEGQNAHGEGYVNVTVKPEPRKNRPPIAIVSPQFQEISLPTTSTVIDGSQSTDDDKIVQYHWEELKGPLREEKISEDTAILKLSKLVPGNYTFSLTVVDSDGATNSTTANLTVNKAVDYPPVANAGPNQVITLPQNSITLFGNQSTDDHGITSYEWSLSPSSKGKVVEMQGVRTPTLQLSAMQEGDYTYQLTVTDTIGQQATAQVTVIVQPENNKPPQADAGPDKELTLPVDSTTLDGSKSSDDQKIISYLWEKTQGPDGVQLENANSSVATVTGLQVGTYVFTLTVKDERNLQSQSSVNVIVKEEINKPPIAKITGNVVITLPTSTAELDGSKSSDDKGIVSYLWTRDEGSPAAGEVLNHSDHHPILFLSNLVEGTYTFHLKVTDAKGESDTDRTTVEVKPDPRKNNLVEIILDINVSQLTERLKGMFIRQIGVLLGVLDSDIIVQKIQPYTEQSTKMVFFVQNEPPHQIFKGHEVAAMLKSELRKQKADFLIFRALEVNTVTCQLNCSDHGHCDSFTKRCICDPFWMENFIKVQLRDGDSNCEWSVLYVIIATFVIVVALGILSWTVICCCKRQKGKPKRKSKYKILDATDQESLELKPTSRAGIKQKGLLLSSSLMHSESELDSDDAIFTWPDREKGKLLHGQNGSVPNGQTPLKARSPREEIL
chain 2: MAADGYLPDWLEDNLSEGIREWWDLKPGAPKPKANQQKQDDGRGLVLPGYKYLGPFNGLDKGEPVNAADAAALEHDKAYDQQLKAGDNPYLRYNHADAEFQERLQEDTSFGGNLGRAVFQAKKRVLEPLGLVEEGAKTAPGKKRPVEQSPQEPDSSSGIGKTGQQPAKKRLNFGQTGDSESVPDPQPLGEPPATPAAVGPTTMASGGGAPMADNNEGADGVGNASGNWHCDSTWLGDRVITTSTRTWALPTYNNHLYKQISSASTGASNDNHYFGYSTPWGYFDFNRFHCHFSPRDWQRLINNNWGFRPKRLNFKLFNIQVKEVTTNDGVTTIANNLTSTVQVFSDSEYQLPYVLGSAHQGCLPPFPADVFMIPQYGYLTLNNGSQAVGRSSFYCLEYFPSQMLRTGNNFTFSYTFEEVPFHSSYAHSQSLDRLMNPLIDQYLYYLNRTQNQSGSAQNKDLLFSRGSPAGMSVQPKNWLPGPCYRQQRVSKTKTDNNNSNFTWTGASKYNLNGRESIINPGTAMASHKDDEDKFFPMSGVMIFGKESAGASNTALDNVMITDEEEIKATNPVATERFGTVAVNFQSSSTDPATGDVHAMGALPGMVWQDRDVYLQGPIWAKIPHTDGHFHPSPLMGGFGLKNPPPQILIKNTPVPANPPAEFSATKFASFITQYSTGQVSVEIEWELQKENSKRWNPEVQYTSNYAKSANVDFTVDNNGLYTEPRPIGTRYLTRPL

In the test the parent is B1. The test is described as follows: SPR (BIAcore); parent: 13.9 nM. For orientation: In SPR one partner is held on a chip, and binding of the other changes the refractive index at the surface.
One may read the Kd as the free concentration of one partner at which half of the binding sites on the other are occupied at equilibrium, for simple one-to-one binding. With chain 1 V427A, the Kd came to 35.8 µM.
chain 1 S425A: the Kd came out at 3.68 µM.
On to chain 1 T426A, for which the Kd stood at 46.9 µM.
